Among the data in PMC7525151, “Fumarase From Cyanidioschyzon merolae Stably Shows High Catalytic Activity for Fumarate Hydration Under High Temperature Conditions” (Frontiers in Microbiology, 2020) are Km, kcat and kcat/Km values, retold here.

For the data set, the system named is O=C(O)C[C@H](O)C(=O)O. The experiment in a line: purified protein. The note with it: L-malate dehydration.
[1] abbreviates: 100 mM Tris-HCl pH 8.5, 52 °C, pH 8.5.
Setting [2] is: 100 mM Tris-HCl pH 7.5, 50 °C, pH 7.5.

CmFUM (Cyanidioschyzon merolae strain 10D), sequence (chain, as listed by the source): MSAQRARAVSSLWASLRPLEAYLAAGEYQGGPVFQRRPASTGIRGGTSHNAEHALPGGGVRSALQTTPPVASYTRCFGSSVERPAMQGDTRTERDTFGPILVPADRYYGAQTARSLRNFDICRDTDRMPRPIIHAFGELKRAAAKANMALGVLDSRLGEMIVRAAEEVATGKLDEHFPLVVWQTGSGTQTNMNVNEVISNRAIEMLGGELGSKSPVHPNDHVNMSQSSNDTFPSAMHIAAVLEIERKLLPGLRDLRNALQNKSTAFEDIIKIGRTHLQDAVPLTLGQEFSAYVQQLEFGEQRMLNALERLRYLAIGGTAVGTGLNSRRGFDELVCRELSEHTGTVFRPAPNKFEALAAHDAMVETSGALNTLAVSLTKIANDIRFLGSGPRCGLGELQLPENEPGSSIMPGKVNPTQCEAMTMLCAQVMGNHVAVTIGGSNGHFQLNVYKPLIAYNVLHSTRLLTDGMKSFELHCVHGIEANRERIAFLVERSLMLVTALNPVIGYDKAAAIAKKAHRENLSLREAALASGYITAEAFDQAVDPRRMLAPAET
TeFum (Thermosynechococcus vestitus BP-1), sequence (chain, as listed by the source): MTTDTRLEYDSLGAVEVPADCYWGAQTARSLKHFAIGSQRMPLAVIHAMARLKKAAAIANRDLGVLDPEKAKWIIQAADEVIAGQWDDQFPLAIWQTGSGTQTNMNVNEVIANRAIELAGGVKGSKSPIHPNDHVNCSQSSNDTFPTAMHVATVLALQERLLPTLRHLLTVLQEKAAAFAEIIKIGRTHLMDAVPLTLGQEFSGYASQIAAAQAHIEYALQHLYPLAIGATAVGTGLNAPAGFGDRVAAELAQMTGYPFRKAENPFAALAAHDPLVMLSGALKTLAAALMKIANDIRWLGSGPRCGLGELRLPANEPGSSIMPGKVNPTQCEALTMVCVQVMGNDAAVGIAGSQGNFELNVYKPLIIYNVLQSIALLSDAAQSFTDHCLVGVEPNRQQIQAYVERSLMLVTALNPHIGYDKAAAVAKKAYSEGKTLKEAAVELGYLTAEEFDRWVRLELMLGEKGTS

Usually Km stands for the concentration of substrate that gives half-maximal velocity. A word on the kcat: it is the number of substrate molecules converted per active site and unit of time at saturation. By kcat/Km is commonly meant the turnover number divided by the Michaelis constant. On to “CmFUM (Cyanidioschyzon merolae strain 10D)”, for which, under setting [1], the Km came to 1.49 ± 0.12 mM, the kcat was 244 s⁻¹ and the kcat/Km is 164000 M⁻¹ s⁻¹.
On to “TeFum (Thermosynechococcus vestitus BP-1)”, for which, under setting [2], the Km came to 0.20 ± 0.01 mM, the kcat was found to be 15 s⁻¹ and the kcat/Km was found to be 76000 M⁻¹ s⁻¹.
